The text below walks through data of patent publication US20240239864A1.

This test addresses HLA-A2 (HLA-A*02:01) on cells (T2 cells; K562A2 cells) (human). The test can be described thus: T2 peptide-binding assay: T2 cells with peptide at 100 µg/mL overnight, surface HLA-A2 by flow cytometry (T2 only: 3.34E+05). Conditions: remark: other sources report otherwise. (Flow cytometry measures light scatter and fluorescence of single cells or particles in a stream.)

Regarding NTDNNLAVY (peptide, UniProt Q5H943 52-60, looked up) [KKLC1 p52-60 peptide (HLA-A1 restricted control), Q5H943 52-60], the Mean Fluorescence Intensity (surface HLA-A2) was determined as 305000.
